Article PMC9097884 (2022)

Target: SARS-CoV-2 S1 (residues 1-682, Wuhan-Hu-1) (SARS-CoV-2 (Wuhan-Hu-1 strain), UniProt P0DTC2 14-682)
Assay: BLI

B1: 87G7 human monoclonal antibody (recombinant human IgG1/kappa) (antibody, V domains shown)
VH: EVQLLESGGGLVQPGGSLRLSCVASGFTFSSYVMSWVRQAPGKGLEWVAAISGSGGNTYYADSVKGRFTISRDNSKNTLYLQMNSLRAEDTAVYYCAKEGTYYYGSGSFWGQGTLVTVSS
VL: EIVLTQSPATLSLSPGERATLSCRASQSFHNYLAWYQQKPGRAPRLLIFDASNRATGIPARFSGSGSGTDFTLTISSLEPEDFAVYYCQQRFNWPLTFGGGTKVEIK
B1 was tested, and the Kd was 2.89 nM.
